The source of these data is US20200079833A1 (AstraZeneca / MedImmune, published 2020).

Starred links: 1 amine or outer side, 2 acyl side, 3 side chain; linkers in the order of their positions; H or OH if unused. Non-standard residues stand in square brackets, D forms with d. Groups on a side chain read outwards from the residue. Primed or numbered codes have the meaning given here. No end group written: not given here. *: point of attachment. γGlu = O=C(O)[C@H](CCC(=O)[*:2])N[*:1]; Stearoyl = CCCCCCCCCCCCCCCCCC(=O)*; αMeF = C[C@](N)(Cc1ccccc1)C(=O)O; Myristoyl = CCCCCCCCCCCCCC(=O)*; αMeK = C[C@](N)(CCCCN)C(=O)O; Lauroyl = CCCCCCCCCCCC(=O)*; αMeS = C[C@](N)(CO)C(=O)O; Nle = CCCC[C@H](N)C(=O)O; PEG2′ = not defined here; Aib = CC(C)(N)C(=O)O

What all share (test): cell-based or functional assay
Experiment [1] deals with GLP-1 receptor (GLP-1R), primary cAMP assay cell line (human, UniProt P43220 24-463).
Experiment [2] deals with glucagon receptor (GCGR), primary cAMP assay cell line (human, UniProt P47871 26-477).
The target in experiment [3] is T1, glucose-dependent insulinotropic peptide (gastric inhibitory polypeptide) receptor (GIPR), primary cAMP assay … (human, UniProt P48546 22-466).
T1 sequence (looked up): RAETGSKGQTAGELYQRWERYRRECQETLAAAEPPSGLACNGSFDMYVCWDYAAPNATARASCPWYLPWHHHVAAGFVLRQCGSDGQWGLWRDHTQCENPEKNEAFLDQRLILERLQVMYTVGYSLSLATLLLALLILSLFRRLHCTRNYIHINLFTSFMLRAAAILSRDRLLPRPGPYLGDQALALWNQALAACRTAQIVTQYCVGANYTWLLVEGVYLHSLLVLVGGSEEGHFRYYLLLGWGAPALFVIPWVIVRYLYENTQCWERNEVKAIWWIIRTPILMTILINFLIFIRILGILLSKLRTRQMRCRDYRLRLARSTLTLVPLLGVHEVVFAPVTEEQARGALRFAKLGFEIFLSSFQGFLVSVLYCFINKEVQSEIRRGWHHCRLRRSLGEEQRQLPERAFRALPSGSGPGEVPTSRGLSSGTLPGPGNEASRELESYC

For experiment [4], the target named is T2, GLP-1R in the INS1e assay (UniProt P32301 22-463, limits assumed).
T2 sequence (looked up): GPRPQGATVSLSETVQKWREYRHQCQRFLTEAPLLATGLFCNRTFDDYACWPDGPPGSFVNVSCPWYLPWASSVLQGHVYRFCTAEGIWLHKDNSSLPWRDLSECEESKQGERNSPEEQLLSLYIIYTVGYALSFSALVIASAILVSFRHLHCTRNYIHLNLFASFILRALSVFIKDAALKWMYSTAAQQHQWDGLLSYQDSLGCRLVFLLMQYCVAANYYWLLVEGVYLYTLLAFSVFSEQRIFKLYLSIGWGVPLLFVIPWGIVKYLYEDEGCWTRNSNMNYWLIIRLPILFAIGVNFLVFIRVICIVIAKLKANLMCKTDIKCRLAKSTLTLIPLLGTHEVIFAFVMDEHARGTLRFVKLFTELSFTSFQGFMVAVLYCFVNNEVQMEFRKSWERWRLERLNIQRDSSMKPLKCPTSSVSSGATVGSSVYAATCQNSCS

The target of experiment [5] is GLP-1 receptor (GLP-1R), primary cAMP assay (human, UniProt P43220 24-463).
The target of experiment [6] is glucagon receptor (GCGR), primary cAMP assay (human, UniProt P47871 26-477).
Experiment [7] addresses T3, glucose-dependent insulinotropic peptide (gastric inhibitory polypeptide) receptor (GIPR), primary cAMP assay (human, UniProt P48546 22-466).
T3 sequence (looked up): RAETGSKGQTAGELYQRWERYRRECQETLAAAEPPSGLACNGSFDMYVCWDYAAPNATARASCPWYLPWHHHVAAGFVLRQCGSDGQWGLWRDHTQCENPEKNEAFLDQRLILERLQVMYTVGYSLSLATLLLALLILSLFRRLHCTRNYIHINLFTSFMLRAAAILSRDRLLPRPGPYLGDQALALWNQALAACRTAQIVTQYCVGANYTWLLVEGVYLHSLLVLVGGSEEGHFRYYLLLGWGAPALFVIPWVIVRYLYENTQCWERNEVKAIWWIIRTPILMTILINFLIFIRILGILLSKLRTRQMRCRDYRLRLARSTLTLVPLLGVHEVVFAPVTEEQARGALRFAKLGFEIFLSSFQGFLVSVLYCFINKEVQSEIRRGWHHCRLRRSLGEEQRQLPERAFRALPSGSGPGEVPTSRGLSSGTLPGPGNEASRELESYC

For experiment [8], the target named is T4, GLP-1R in the INS1e assay (UniProt P32301 22-463, limits assumed).
T4 sequence (looked up): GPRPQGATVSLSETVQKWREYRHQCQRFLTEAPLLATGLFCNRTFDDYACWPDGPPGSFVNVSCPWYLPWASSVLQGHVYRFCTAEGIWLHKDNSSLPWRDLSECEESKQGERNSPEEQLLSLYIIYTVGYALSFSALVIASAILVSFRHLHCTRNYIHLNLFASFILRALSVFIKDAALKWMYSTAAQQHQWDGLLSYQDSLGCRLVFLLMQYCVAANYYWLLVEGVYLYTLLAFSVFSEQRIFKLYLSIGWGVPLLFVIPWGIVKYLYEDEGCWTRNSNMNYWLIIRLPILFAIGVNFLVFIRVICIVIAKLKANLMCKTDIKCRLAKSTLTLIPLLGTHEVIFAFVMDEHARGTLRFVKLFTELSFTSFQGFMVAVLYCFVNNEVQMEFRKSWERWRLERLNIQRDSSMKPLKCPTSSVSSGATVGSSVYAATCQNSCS
This is another data set of the same source.

Sequence of glucagon receptor (GCGR), primary cAMP assay (P47871 26-477): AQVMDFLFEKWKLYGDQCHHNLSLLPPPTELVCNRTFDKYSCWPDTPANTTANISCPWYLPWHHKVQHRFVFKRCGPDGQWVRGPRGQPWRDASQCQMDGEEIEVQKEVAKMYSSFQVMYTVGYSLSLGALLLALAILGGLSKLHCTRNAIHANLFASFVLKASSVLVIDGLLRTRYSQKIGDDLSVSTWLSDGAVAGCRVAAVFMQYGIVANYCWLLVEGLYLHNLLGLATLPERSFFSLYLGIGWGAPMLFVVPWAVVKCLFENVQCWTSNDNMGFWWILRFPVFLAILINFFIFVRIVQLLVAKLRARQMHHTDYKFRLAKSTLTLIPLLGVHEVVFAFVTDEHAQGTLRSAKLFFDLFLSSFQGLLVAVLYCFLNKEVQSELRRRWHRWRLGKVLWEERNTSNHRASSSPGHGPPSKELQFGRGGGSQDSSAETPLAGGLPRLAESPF
Sequence of glucagon receptor (GCGR), primary cAMP assay cell line (P47871 26-477): as above

B1: SEQ ID NO: 455 (peptide)
peptide: H[Aib]EGS[αMeF]TSDK([PEG2′-PEG2′-γGlu-Lauroyl])SSYLEK([PEG2′-PEG2′-γGlu-Lauroyl])EAA[αMeK]EFIAK([PEG2′-PEG2′-γGlu-Lauroyl])VVEGG-NH2
Turning to B1, in experiment [1], the “cAMP Primary assay EC50, Mean pM GLP-1R” value was determined as 87.4 pM; the “cAMP Primary assay EC50, n1” value is 54.8 pM; the “cAMP Primary assay EC50, n2” value was found to be 120 pM. In experiment [2], the “cAMP Primary assay EC50, n1” value amounted to 19800 pM and the “cAMP Primary assay EC50, n2” value was 19800 pM. In experiment [3], the “cAMP Primary assay EC50, n1” value came to 19800 pM and the “cAMP Primary assay EC50, n2” value came out at 19800 pM. In experiment [4], the “cAMP INS1e assay EC50, Mean pM GLP-1R” value worked out at 4910 pM; the “cAMP INS1e assay EC50, n1” value is 6740 pM; the “cAMP INS1e assay EC50, n2” value is 3080 pM.

B2: SEQ ID NO: 410 (peptide)
peptide: H[Aib]EGS[αMeF]TSDV[αMeS]SK([PEG2′-PEG2′-γGlu-Stearoyl])LEGEAA[αMeK]E[αMeF]IAK([PEG2′-PEG2′-γGlu-Stearoyl])VVEGG-NH2
Take B2: in experiment [5], the “Primary assay EC50 (cAMP) Mean” value was found to be 187 pM; the “Primary assay EC50 (cAMP), n1” value came to 248 pM; the “Primary assay EC50 (cAMP), n2” value is 126 pM. Further, in experiment [6], the “Primary assay EC50 (cAMP), n1” value was determined as 21500 pM and the “Primary assay EC50 (cAMP), n2” value came to 21500 pM. In addition, in experiment [7], the “Primary assay EC50 (cAMP), n1” value was 21500 pM and the “Primary assay EC50 (cAMP), n2” value worked out at 21500 pM. Besides, in experiment [8], the “INS1e assay EC50 (cAMP) Mean” value worked out at 780 pM, the “INS1e assay EC50 (cAMP) n1” value is 698 pM and the “INS1e assay EC50 (cAMP) n2” value was found to be 862 pM.

B3: SEQ ID NO: 405 (peptide)
peptide: H[Aib]EGS[αMeF]TSDV[αMeS]SK([PEG2′-PEG2′-γGlu-Lauroyl])LEGEAA[αMeK]E[αMeF]IAK([PEG2′-PEG2′-γGlu-Lauroyl])VVEGG-NH2
With B3, in experiment [5], the “Primary assay EC50 (cAMP) Mean” value came out at 3.9 pM; the “Primary assay EC50 (cAMP), n1” value was determined as 4.05 pM; the “Primary assay EC50 (cAMP), n2” value was 3.66 pM. In experiment [6], the “Primary assay EC50 (cAMP), n1” value is 21500 pM and the “Primary assay EC50 (cAMP), n2” value was found to be 21500 pM. For the same molecule, in experiment [7], the “Primary assay EC50 (cAMP), n1” value is 21500 pM and the “Primary assay EC50 (cAMP), n2” value was found to be 21500 pM. In addition, in experiment [8], the “INS1e assay EC50 (cAMP) Mean” value is 116 pM, the “INS1e assay EC50 (cAMP) n1” value is 110 pM and the “INS1e assay EC50 (cAMP) n2” value was found to be 121 pM.

B4: SEQ ID NO: 407 (peptide)
peptide: H[Aib]EGS[αMeF]TSDV[αMeS]SK([PEG2′-PEG2′-γGlu-Lauroyl])LEGEAA[αMeK]E[Nle]IAK([PEG2′-PEG2′-γGlu-Lauroyl])VVEGG-NH2
B4: in experiment [5], the “Primary assay EC50 (cAMP) Mean” value is 2 pM; the “Primary assay EC50 (cAMP), n1” value came to 1.96 pM; the “Primary assay EC50 (cAMP), n2” value turned out to be 2.01 pM. Further, in experiment [6], the “Primary assay EC50 (cAMP), n1” value is 21500 pM and the “Primary assay EC50 (cAMP), n2” value was 21500 pM. In experiment [7], the “Primary assay EC50 (cAMP), n1” value stood at 21500 pM and the “Primary assay EC50 (cAMP), n2” value was found to be 21500 pM. Also, in experiment [8], the “INS1e assay EC50 (cAMP) Mean” value was found to be 104 pM, the “INS1e assay EC50 (cAMP) n1” value turned out to be 113 pM and the “INS1e assay EC50 (cAMP) n2” value was 95.2 pM.

B5: SEQ ID NO: 408 (peptide)
peptide: H[Aib]EGS[αMeF]TSDV[αMeS]SK([PEG2′-PEG2′-γGlu-Myristoyl])LEGEAA[αMeK]E[αMeF]IAK([PEG2′-PEG2′-γGlu-Myristoyl])VVEGG-NH2
For B5, in experiment [5], the “Primary assay EC50 (cAMP) Mean” value worked out at 8.9 pM; the “Primary assay EC50 (cAMP), n1” value worked out at 9.96 pM; the “Primary assay EC50 (cAMP), n2” value is 7.89 pM. In addition, in experiment [6], the “Primary assay EC50 (cAMP), n1” value was 21500 pM and the “Primary assay EC50 (cAMP), n2” value stood at 21500 pM. Besides, in experiment [7], the “Primary assay EC50 (cAMP), n1” value was 21500 pM and the “Primary assay EC50 (cAMP), n2” value is 21500 pM. For the same molecule, in experiment [8], the “INS1e assay EC50 (cAMP) Mean” value turned out to be 412 pM, the “INS1e assay EC50 (cAMP) n1” value came out at 376 pM and the “INS1e assay EC50 (cAMP) n2” value turned out to be 448 pM.
